Source: publication PMC6718144, “Structure of the archaeal chemotaxis protein CheY in a domain-swapped dimeric conformation” (Acta Crystallographica. Section F, Structural Biology …, 2019)

Biological target: the molecule itself
Experiment: cross-linking; glutaraldehyde, incubation 1, 2, 5 and 10 min before quenching; Coomassie-stained SDS-PAGE

B1: CheF from Pyrococcus horikoshii (PhCheF), non-His-tagged (natural protein, P. horikoshii)
chain: MPIFEARVKVGISSSWVTSRKVSWRDAIAQIESDRIVVKYLKMGEVVGEDSFPFSALIDLGVRIPDELKLNPEKDHFGIKFYIPGRGELLVIFTIEENLLIYDEKKFSEFVHKVFEVLINGKTVMLQLARIIGGAVNMESKWEEGWLRVIKVKSARTQKTERSIVVIIKDKRPVSIFSDLEDIEIEEVDMNGKRVRAWKIRHFHIDQSVTSYLYIPDKQTQLYVLRYLLKYNPAIMEFIMKVSDDFPTLKSEFQEIMEKEIKELEALDEMEKQILVALYSGINPLELHQFLGVSEKEIEEIYDRMIDKGLLKIVMIRKIVDLTNEGRKIVNKLLKYGLVSM
notes: CheF, Pyrococcus horikoshii, ORF PH0494, UniProt O58230; also called PH0494; source: E. coli BL21 Gold (DE3); purified (heating to 80°C, SEC); as lysate supernatant in the pull-down
  stoichiometry N: 2
